System: RSG1.2 peptide (synthetic)
Assay: FP
Conditions: about fifty fold greater RNA concentration than RRE1 required for similar polarization; 150 mM KCl, 5 mM MgCl2

“GGCUGGUAUGGGCGCAGCGUCAAUGACGCUGCGCCCAGGCCAGCC [RRE2 hairpin]” showed a fold-higher RNA concentration than RRE1 for similar polarization of 50 fold.

Source: patent US20030148343
